According to patent US6429304:

Molecular target: microtubules prepared from bovine brain tubulin (taxol-stabilized)

B1: baculovirus-expressed S. purpuratus katanin p60 subunit with N-terminal His(6) tag (protein)
chain: HHHHHHMSVDEICENTKMGREYALLGNYETSLVYYQGVLQQIQKLLTSVHEPQRKHQWQTIRQELSQEYEHVKNITKTLNGFKSEPAAPEPAPNHRAAPFSHHQHAAKPAAAEPARDPDVWPPPTPVDHRPSPPYQRAARKDPPRRSEPSKPANRAPGNDRGGRGPSDRRGDARSGGGGRGGARGSDKDKNRGGKSDKDKKAPSGEEGDEKKFDPAGYDKDLVENLERDIVQRNPNVHWADIAGLTEAKRLLEEAVVLPLWMPDYFKGIRRPWKGVLMVGPPGTGKTMLAKAVATECGTTFFNVSSASLTSKYHGESEKLVRLLFEMARFYAPSTIFIDEIDSICSKRGTGSEHEASRRVKSELLIQMDGVSGPSAGEESSKMVMVLAATNFPWDIDEALRRRLEKRIYIPLPEIDGREQLLRINLKEVPLADDIDLKSIAEKMDGYSGADITNVCRDASMMAMRRRIQGLRPEEIRHIPKEELNQPSTPADFLLALQKVSKSVGKEDLVKYMAWMEEFGSV
ATPase activity (malachite green): p60 alone displayed a microtubule-stimulated ATPase activity
maximal basal and microtubule-stimulated ATPase rates relative to p60/p80: only 2-fold lower than those of the p60/p80 heterodimer
microtubule concentration at peak ATPase stimulation: peak at ˜2 µM tubulin
microtubule severing (fluorescence microscopy assay): Both p60 and p60/p80 severed microtubules in this assay
rate of microtubule disassembly (DAPI fluorescence assay): p60 was half as active as p60/p80

B2: co-expressed recombinant p60/p80 katanin heterodimer (baculovirus, both subunits with N-terminal His(6) tag) (protein)
chain 1: B1 chain
chain 2: HHHHHHMATKRAWKLQELVAHSSNVNCLALGPMSGRVMVTGGEDKKVNLWAVGKQNCIISLSGHTSPVDSVKFNSSEELVVAGSQSGTMKIYDLEPAKIVRTLTGHRNSIRCMDFHPFGEFVASGSTDTNVKLWDVRRKGCIYTYKGHSDQVNMIKFSPDGKWLVTASEDTTIKLWDLTMGKLFQEFKNHTGGVTGIEFHPNEFLLASGSSDRTVQFWDLETFQLVSSTSPGASAVRSISFHPDGSYLFCSSQDMLHAFGWEPIRCFDTFSVGWGKVADTVIASTQLIGASFNATNVSVYVADLSRMSTTGIAQEPQSQPSKTPSGGAEEVPSKPLTASGRKNFVRERPHTTSSKQRQPDVKSEPERQSPTQDEGVKDDDATDIKDPDSYAKIFSPKTRVDHSPERNAQPFPAPLDVPGAQEPEPFKHPPKPAAAAAVAPVSRAPAPSASDWQPAQANPAPNRVPAATKPVPAQEVAPSRKPDPISTIIPSDRNKPANLDMDAFLPPAHAQQAPRVNAPASRKQSDSERIEGLRKGHDSMCQVLSSRHRNLDVVRAIWTAGDAKTSVESVVNMKDQAILVDILNIMLLKKSLWNLDMCVVVLPRLKELLSSKYENYVHTSCACLKLILKNFTSLFNQNIKCPPSGIDITREERYNKCSKCYSYLIATRGYVEEKQHVSGKLGSSFRELHLLLDQLE
ATPase activity (malachite green), stimulation by microtubules: this activity was stimulated ˜10-fold by microtubules
maximal microtubule-stimulated ATPase rate: maximal microtubule-stimulated rate of 3 ATP/katanin/sec
microtubule concentration at peak ATPase stimulation: peak at ˜2 µM tubulin
microtubule severing (fluorescence microscopy assay): Both p60 and p60/p80 severed microtubules in this assay
